Entries after “also recorded” stand apart in the source; their conditions may differ.
B1: AimR^ΔC-ter: AimR mutant lacking the TPR^C-ter subdomain, stop codon at position 294 (protein)
chain: MELIRIAMKKDLENDNSLMNKWATVAGLKNPNPLYDFLNHDGKTFNEFSSIVNIVKSQYPDREYELMKDYCLNLDVKTKAARSALEYADANMFFEIEDVLIDSMISCSNMKSKEYGKVYKIHRELSNSVITEFEAVKRLGKLNIKTPEMNSFSRLLLLYHYLSTGNFSPMAQLIKQIDLSEISENMYIRNTYQTRVHVLMSNIKLNENSLEECREYSKKALESTNILRFQVFSYLTIGNSLLFSNYELAQENFLKGLSISVQNENYNMIFQQALCFLNNVWRKENKWINFESD
B2: SPbeta AimR: full-length AimR (residues 1-386) from the SPbeta phage, transcription factor and arbitrium receptor (protein)
chain: MELIRIAMKKDLENDNSLMNKWATVAGLKNPNPLYDFLNHDGKTFNEFSSIVNIVKSQYPDREYELMKDYCLNLDVKTKAARSALEYADANMFFEIEDVLIDSMISCSNMKSKEYGKVYKIHRELSNSVITEFEAVKRLGKLNIKTPEMNSFSRLLLLYHYLSTGNFSPMAQLIKQIDLSEISENMYIRNTYQTRVHVLMSNIKLNENSLEECREYSKKALESTNILRFQVFSYLTIGNSLLFSNYELAQENFLKGLSISVQNENYNMIFQQALCFLNNVWRKENKWINFESDSIMDLQEQAHCFINFNENSKAKEVLDKLDLLVHNDNELAMHYYLKGRLEQNKACFYSSIEYFKKSNDKFLIRLPLLELQKMGENQKLLELLLL
modifications: left off: His6, N-terminal, cleaved
notes: full-length AimR (residues 1-386) from the SPbeta phage, transcription factor and arbitrium receptor
B3: AimR^N202A: SPbeta AimR residue N202 mutated to Ala (protein)
chain: MELIRIAMKKDLENDNSLMNKWATVAGLKNPNPLYDFLNHDGKTFNEFSSIVNIVKSQYPDREYELMKDYCLNLDVKTKAARSALEYADANMFFEIEDVLIDSMISCSNMKSKEYGKVYKIHRELSNSVITEFEAVKRLGKLNIKTPEMNSFSRLLLLYHYLSTGNFSPMAQLIKQIDLSEISENMYIRNTYQTRVHVLMSAIKLNENSLEECREYSKKALESTNILRFQVFSYLTIGNSLLFSNYELAQENFLKGLSISVQNENYNMIFQQALCFLNNVWRKENKWINFESDSIMDLQEQAHCFINFNENSKAKEVLDKLDLLVHNDNELAMHYYLKGRLEQNKACFYSSIEYFKKSNDKFLIRLPLLELQKMGENQKLLELLLL
B4: AimR^D360A: SPbeta AimR residue D360 mutated to Ala (protein)
chain: MELIRIAMKKDLENDNSLMNKWATVAGLKNPNPLYDFLNHDGKTFNEFSSIVNIVKSQYPDREYELMKDYCLNLDVKTKAARSALEYADANMFFEIEDVLIDSMISCSNMKSKEYGKVYKIHRELSNSVITEFEAVKRLGKLNIKTPEMNSFSRLLLLYHYLSTGNFSPMAQLIKQIDLSEISENMYIRNTYQTRVHVLMSNIKLNENSLEECREYSKKALESTNILRFQVFSYLTIGNSLLFSNYELAQENFLKGLSISVQNENYNMIFQQALCFLNNVWRKENKWINFESDSIMDLQEQAHCFINFNENSKAKEVLDKLDLLVHNDNELAMHYYLKGRLEQNKACFYSSIEYFKKSNAKFLIRLPLLELQKMGENQKLLELLLL

How the values were obtained:
[1] = Size-exclusion chromatography of AimR^ΔC-ter; format: physicochemical; details: stop codon at position 294
[2] = SEC-MALS, oligomeric state of AimR proteins; format: physicochemical; details: 5 mg/mL, Superdex 200 HR 10/300, 25 mM Tris pH 8, 250 mM NaCl
Method: SEC-MALS experiments were performed using an AKTA pure system (GE Heralthcare) coupled to a Wyatt DAWN HELEOS-II MALS instrument and a Wyatt Optilab rEX differential refractometer (Wyatt). 50 μL of the protein samples were injected at a concentration of 5 mg/mL on a Superdex 200 HR 10/300 (GE Heralthcare) column equilibrated in 25 mM Tris pH 8, 250 mM NaCl. When the effect of the peptide in the oligomeric state was tested, 1 mM peptide was added to the injected sample and the running buffer was supplemented with peptide at a final concentration of 1 μM. The Astra 7.1.2 software from the manufacturer was used for acquisition and analysis of the data.

[3] = system: spacer-length-variant operators; experiment: EMSA and titration, AimR binding to spacer-length-variant operators; set-up: species or system Bacillus subtilis SPbeta phage; details: apo AimR; spacers 12 to 35 bp; titration with 0.125 to 1 μg AimR
From the text: (§1) Gels were stained with RedSafe (Intron Biotechnology).

[4] = system: putative AimR operators found in SPbeta genome; experiment: EMSA, AimR binding to other SPbeta operators with longer spacers; set-up: species or system Bacillus subtilis SPbeta phage; details: spacers of 27 and 28 bp
From the text: as §1

[5] = system: intergenic region between yopL and yopM; experiment: Nuclease protection assay (footprinting); format: binding, Bacillus subtilis SPbeta phage; details: 0.3 μM AimR SPbeta, 10 min room temperature; DNase I 10^−4 mg/mL, 1 min at 37°C; capillary electrophoresis
SPbeta AimR operator = details: pH 7.5
Method: AimR binding to its operator and the inhibition induced by the arbitrium peptides were analyzed by native polyacrylamide and agarose gel electrophoresis. […] Double strand DNA primer probes were purchased from Macrogen (Table S1 and Figure 3A). Purified PCR product or purchased probes (0.4μM) and AimR (4μM) protein were mixed in EMSA buffer (50 mM HEPES pH 7.5, 5 mM MgCl2, 75 mM NaCl and 0.5 mM EDTA). The samples were incubated for 10 min at room temperature. 8% polyacrylamide gels were electrophoresed in Tris-Borate-EDTA (TBE) buffer at 100V for one hour, followed by loading of the samples. Electrophoresis was then performed in TBE buffer at 4°C for about 150 min at 100V. Agarose gels (0.8%–1.2%) were run in TAE buffer at room temperature for about 100 min at 80V. Gels were stained with RedSafe (Intron Biotechnology).

SPbeta AimR D360A = experiment: Thermal shift assay, mutant AimR D360A; format: binding, Bacillus subtilis SPbeta phage; details: AimR^D360A versus WT AimR
Method: The thermal shift assay was conducted in a 7500 Fast Real time PCR System (Applied Biosystems). Samples of 20 μL containing 5 × Sypro Orange (Sigma-Aldrich) and 20 μM of protein in a 20 mM Tris pH 8 and 250 mM NaCl buffer were loaded in 96-well PCR plates. To calculate the apparent Kd peptide concentrations from 0 to 2 μM were added to the mixture. Samples were heated from 20 to 85°C in steps of one degree. Fluorescent intensity was plotted versus temperature and integrated with GraphPad Prism software using a Boltzmann model to calculate melting temperatures.

Molecule	oligomeric state in solution (size-exclusion chromatography) [1]	oligomeric state in solution [2]	affinity / capacity to bind spacer-length-variant operators [3]	binding to other SPbeta operators [4]	length of sequence protected from DNase I degradation [5] [nt]	binding to SPbeta operator or 359 bp fragment (SPbeta AimR operator)	decrease in the melting temperature with respect to the WT AimR (SPbeta AimR D360A) [°C]
B1	monomeric in solution	–	–	–	–	–	–
B2	–	dimeric organization	after eliminating 2 bp AimR dramatically loses its capacity to bind the operator; also recorded: can recognize operators in which the spacer has been increased even more than 6 bp	AimR binding to other SPbeta operators with longer spacers	37	binds to a 359 bp fragment	–
B3	–	dimeric in solution	–	–	–	able to bind DNA	–
B4	–	dimeric in solution	–	–	–	–	5.3

Source: article PMC6458997, “Deciphering the Molecular Mechanism Underpinning Phage Arbitrium Communication Systems” (Molecular Cell, 2019)
